Data: PMC9114370 (2022)

Target: T1, TDP-43_(1–102) (human, UniProt Q13148 1-102, fluorescently labelled for MST)
T1 chain: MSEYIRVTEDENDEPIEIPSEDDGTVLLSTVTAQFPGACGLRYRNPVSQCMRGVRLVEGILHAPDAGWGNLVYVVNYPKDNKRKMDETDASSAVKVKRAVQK
Assay: MST

B1: HspA5 substrate binding domain (SBD) (domain or fragment)
chain: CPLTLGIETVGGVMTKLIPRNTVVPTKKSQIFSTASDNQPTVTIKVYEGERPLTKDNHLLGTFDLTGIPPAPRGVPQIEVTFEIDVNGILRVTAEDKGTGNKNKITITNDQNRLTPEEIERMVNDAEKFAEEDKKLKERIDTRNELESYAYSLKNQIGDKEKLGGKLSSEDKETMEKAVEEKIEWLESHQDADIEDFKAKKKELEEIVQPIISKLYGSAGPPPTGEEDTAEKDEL
Kd: 1440 nM
